Sequences and labels used below:
B1: α-FtsZ fusion protein (wild-type E. coli FtsZ) (natural protein, UniProt P0A9A6 1-383, looked up)
chain: MFEPMELTNDAVIKVIGVGGGGGNAVEHMVRERIEGVEFFAVNTDAQALRKTAVGQTIQIGSGITKGLGAGANPEVGRNAADEDRDALRAALEGADMVFIAAGMGGGTGTGAAPVVAEVAKDLGILTVAVVTKPFNFEGKKRMAFAEQGITELSKHVDSLITIPNDKLLKVLGRGISLLDAFGAANDVLKGAVQGIAELITRPGLMNVDFADVRTVMSEMGYAMMGSGVASGEDRAEEAAEMAISSPLLEDIDLSGARGVLVNITAGFDLRLDEFETVGNTIRAFASDNATVVIGTSLDPDMNDELRVTVVATGIGMDKRPEITLVTNKQVQQPVMDRYQQHGMAPLTQEQKPVAKVVNDNAPQTAKEPDYLDIPAFLRKQAD
notes: also called λCI-FtsZ; Eco FtsZ; not shown: RNA polymerase α subunit N-terminal domain, N-terminal, kept

What all share (test): two-hybrid
The target of data set [1] is T1, λCI-ZipACTD (residues 186–328) (E. coli, UniProt P77173 186-328).
T1 construct: also called C-terminal domain of ZipA; not shown: λCI, N-terminal, kept
The conditions noted are these: partners not purified.

The data set “two-hybrid” concerns the molecule itself.
Data set [2] deals with T2, λCI-CbtA fusion protein (wild-type CbtA toxin of E. coli) (E. coli, UniProt P64524 1-124).
T2 construct: also called YeeV; source: bacterial two-hybrid fusion, produced in E. coli reporter strain FW102 OL2-62; not shown: λCI, N-terminal, kept
T2 sequence: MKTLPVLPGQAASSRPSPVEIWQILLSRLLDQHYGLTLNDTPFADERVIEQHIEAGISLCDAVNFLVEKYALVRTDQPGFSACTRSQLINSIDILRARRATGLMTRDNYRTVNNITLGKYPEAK
The conditions noted are these: partners not purified.

The target in data set [3] is B1. The conditions noted are these: partners not purified.
Another data set has as its target T3, λCI-CbtA-V48E (E. coli, UniProt P64524 1-124, V48E).
T3 construct: source: bacterial two-hybrid fusion, produced in E. coli reporter strain FW102 OL2-62; not shown: λCI, N-terminal, kept
T3 sequence: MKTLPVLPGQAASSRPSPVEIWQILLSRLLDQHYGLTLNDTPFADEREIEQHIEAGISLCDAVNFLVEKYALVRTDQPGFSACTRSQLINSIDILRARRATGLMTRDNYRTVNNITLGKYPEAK
Conditions: partners not purified.

For data set [4], the target named is T4, λCI-RodZNTD (residues 2–84) (E. coli, UniProt P27434 2-84).
T4 construct: also called cytoplasmic N-terminal domain of RodZ; not shown: λCI, N-terminal, kept
Conditions: partners not purified.

T4 sequence (P27434 2-84): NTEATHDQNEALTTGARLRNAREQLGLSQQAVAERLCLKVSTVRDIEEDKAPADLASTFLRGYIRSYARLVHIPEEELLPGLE

Regarding B1, the results for the “fold increase in lacZ expression” value (in data set [1]; in the data set “two-hybrid”; in data set [2]) were 10 fold, 4 fold and 18 fold, respectively.

B2: α-FtsZ-L169P (natural protein, E. coli, UniProt P0A9A6 1-383, looked up)
chain: MFEPMELTNDAVIKVIGVGGGGGNAVEHMVRERIEGVEFFAVNTDAQALRKTAVGQTIQIGSGITKGLGAGANPEVGRNAADEDRDALRAALEGADMVFIAAGMGGGTGTGAAPVVAEVAKDLGILTVAVVTKPFNFEGKKRMAFAEQGITELSKHVDSLITIPNDKLPKVLGRGISLLDAFGAANDVLKGAVQGIAELITRPGLMNVDFADVRTVMSEMGYAMMGSGVASGEDRAEEAAEMAISSPLLEDIDLSGARGVLVNITAGFDLRLDEFETVGNTIRAFASDNATVVIGTSLDPDMNDELRVTVVATGIGMDKRPEITLVTNKQVQQPVMDRYQQHGMAPLTQEQKPVAKVVNDNAPQTAKEPDYLDIPAFLRKQAD
notes: not shown: RNA polymerase α subunit N-terminal domain, N-terminal, kept
With B2, the “percent reduction of lacZ expression against wild-type α-FtsZ” value in data set [3] is less than 25%.

B3: α-FtsZ-D180K (natural protein, E. coli, UniProt P0A9A6 1-383, looked up)
chain: MFEPMELTNDAVIKVIGVGGGGGNAVEHMVRERIEGVEFFAVNTDAQALRKTAVGQTIQIGSGITKGLGAGANPEVGRNAADEDRDALRAALEGADMVFIAAGMGGGTGTGAAPVVAEVAKDLGILTVAVVTKPFNFEGKKRMAFAEQGITELSKHVDSLITIPNDKLLKVLGRGISLLKAFGAANDVLKGAVQGIAELITRPGLMNVDFADVRTVMSEMGYAMMGSGVASGEDRAEEAAEMAISSPLLEDIDLSGARGVLVNITAGFDLRLDEFETVGNTIRAFASDNATVVIGTSLDPDMNDELRVTVVATGIGMDKRPEITLVTNKQVQQPVMDRYQQHGMAPLTQEQKPVAKVVNDNAPQTAKEPDYLDIPAFLRKQAD
notes: as for B2
For B3, the “fold increase in lacZ expression” value in the data set with λCI-CbtA-V48E was determined as 9 fold.

B4: α-FtsZ-S177P (natural protein, E. coli, UniProt P0A9A6 1-383, looked up)
chain: MFEPMELTNDAVIKVIGVGGGGGNAVEHMVRERIEGVEFFAVNTDAQALRKTAVGQTIQIGSGITKGLGAGANPEVGRNAADEDRDALRAALEGADMVFIAAGMGGGTGTGAAPVVAEVAKDLGILTVAVVTKPFNFEGKKRMAFAEQGITELSKHVDSLITIPNDKLLKVLGRGIPLLDAFGAANDVLKGAVQGIAELITRPGLMNVDFADVRTVMSEMGYAMMGSGVASGEDRAEEAAEMAISSPLLEDIDLSGARGVLVNITAGFDLRLDEFETVGNTIRAFASDNATVVIGTSLDPDMNDELRVTVVATGIGMDKRPEITLVTNKQVQQPVMDRYQQHGMAPLTQEQKPVAKVVNDNAPQTAKEPDYLDIPAFLRKQAD
notes: as for B2
Turning to B4, in data set [3], the “percent reduction of lacZ expression against wild-type α-FtsZ” value was less than 25%.

B5: α-FtsZ-D180N (natural protein, E. coli, UniProt P0A9A6 1-383, looked up)
chain: MFEPMELTNDAVIKVIGVGGGGGNAVEHMVRERIEGVEFFAVNTDAQALRKTAVGQTIQIGSGITKGLGAGANPEVGRNAADEDRDALRAALEGADMVFIAAGMGGGTGTGAAPVVAEVAKDLGILTVAVVTKPFNFEGKKRMAFAEQGITELSKHVDSLITIPNDKLLKVLGRGISLLNAFGAANDVLKGAVQGIAELITRPGLMNVDFADVRTVMSEMGYAMMGSGVASGEDRAEEAAEMAISSPLLEDIDLSGARGVLVNITAGFDLRLDEFETVGNTIRAFASDNATVVIGTSLDPDMNDELRVTVVATGIGMDKRPEITLVTNKQVQQPVMDRYQQHGMAPLTQEQKPVAKVVNDNAPQTAKEPDYLDIPAFLRKQAD
notes: as for B2
Take B5: the “percent reduction of lacZ expression against wild-type α-FtsZ” value in data set [3] is less than 25%.

B6: α-MreB-E196G (natural protein, E. coli, UniProt P0A9X4 1-347, looked up)
chain: MLKKFRGMFSNDLSIDLGTANTLIYVKGQGIVLNEPSVVAIRQDRAGSPKSVAAVGHDAKQMLGRTPGNIAAIRPMKDGVIADFFVTEKMLQHFIKQVHSNSFMRPSPRVLVCVPVGATQVERRAIRESAQGAGAREVFLIEEPMAAAIGAGLPVSEATGSMVVDIGGGTTEVAVISLNGVVYSSSVRIGGDRFDGAIINYVRRNYGSLIGEATAERIKHEIGSAYPGDEVREIEVRGRNLAEGVPRGFTLNSNEILEALQEPLTGIVSAVMVALEQCPPELASDISERGMVLTGGGALLRNLDRLLMEETGIPVVVAEDPLTCVARGGGKALEMIDMHGGDLFSEE
notes: as for B2
In the case of B6, the “percent reduction of lacZ expression against wild-type α-MreB” value in data set [4] is less than 30%.

B7: α-MreB-V173A (natural protein, E. coli, UniProt P0A9X4 1-347, looked up)
chain: MLKKFRGMFSNDLSIDLGTANTLIYVKGQGIVLNEPSVVAIRQDRAGSPKSVAAVGHDAKQMLGRTPGNIAAIRPMKDGVIADFFVTEKMLQHFIKQVHSNSFMRPSPRVLVCVPVGATQVERRAIRESAQGAGAREVFLIEEPMAAAIGAGLPVSEATGSMVVDIGGGTTEAAVISLNGVVYSSSVRIGGDRFDEAIINYVRRNYGSLIGEATAERIKHEIGSAYPGDEVREIEVRGRNLAEGVPRGFTLNSNEILEALQEPLTGIVSAVMVALEQCPPELASDISERGMVLTGGGALLRNLDRLLMEETGIPVVVAEDPLTCVARGGGKALEMIDMHGGDLFSEE
notes: as for B2
For B7, the “percent reduction of lacZ expression against wild-type α-MreB” value in data set [4] was less than 30%.

B8: α-MreB-E262G (natural protein, E. coli, UniProt P0A9X4 1-347, looked up)
chain: MLKKFRGMFSNDLSIDLGTANTLIYVKGQGIVLNEPSVVAIRQDRAGSPKSVAAVGHDAKQMLGRTPGNIAAIRPMKDGVIADFFVTEKMLQHFIKQVHSNSFMRPSPRVLVCVPVGATQVERRAIRESAQGAGAREVFLIEEPMAAAIGAGLPVSEATGSMVVDIGGGTTEVAVISLNGVVYSSSVRIGGDRFDEAIINYVRRNYGSLIGEATAERIKHEIGSAYPGDEVREIEVRGRNLAEGVPRGFTLNSNEILEALQGPLTGIVSAVMVALEQCPPELASDISERGMVLTGGGALLRNLDRLLMEETGIPVVVAEDPLTCVARGGGKALEMIDMHGGDLFSEE
notes: as for B2
For the molecule B8, the “percent reduction of lacZ expression against wild-type α-MreB” value in data set [4] was less than 30%.

B9: α-MreB-I126V (natural protein, E. coli, UniProt P0A9X4 1-347, looked up)
chain: MLKKFRGMFSNDLSIDLGTANTLIYVKGQGIVLNEPSVVAIRQDRAGSPKSVAAVGHDAKQMLGRTPGNIAAIRPMKDGVIADFFVTEKMLQHFIKQVHSNSFMRPSPRVLVCVPVGATQVERRAVRESAQGAGAREVFLIEEPMAAAIGAGLPVSEATGSMVVDIGGGTTEVAVISLNGVVYSSSVRIGGDRFDEAIINYVRRNYGSLIGEATAERIKHEIGSAYPGDEVREIEVRGRNLAEGVPRGFTLNSNEILEALQEPLTGIVSAVMVALEQCPPELASDISERGMVLTGGGALLRNLDRLLMEETGIPVVVAEDPLTCVARGGGKALEMIDMHGGDLFSEE
notes: as for B2
As to B9, the “percent reduction of lacZ expression against wild-type α-MreB” value in data set [4] was less than 30%.

These data come from paper PMC5624674, “CbtA toxin of Escherichia coli inhibits cell division and cell elongation via direct and independent interactions with FtsZ and MreB” (PLoS Genetics, 2017).
